Measured values from article doi:10.1101/2020.10.22.351346.
Blank lines part the entries; values can stand above or below the substance they belong to.

What was measured:
[1] = target: microtubules of pig brain tubulin, taxol-stabilised, surface-immobilised (pig) (UniProt P02550); assay: TIRF fluorescence imaging of labelled MAP on surface-immobilised MTs
[2] = target: microtubules of pig brain tubulin, taxol-stabilised, surface-immobilised (pig) (UniProt P02550)

Chain of full-length human MAP7 (Q14244 whole entry): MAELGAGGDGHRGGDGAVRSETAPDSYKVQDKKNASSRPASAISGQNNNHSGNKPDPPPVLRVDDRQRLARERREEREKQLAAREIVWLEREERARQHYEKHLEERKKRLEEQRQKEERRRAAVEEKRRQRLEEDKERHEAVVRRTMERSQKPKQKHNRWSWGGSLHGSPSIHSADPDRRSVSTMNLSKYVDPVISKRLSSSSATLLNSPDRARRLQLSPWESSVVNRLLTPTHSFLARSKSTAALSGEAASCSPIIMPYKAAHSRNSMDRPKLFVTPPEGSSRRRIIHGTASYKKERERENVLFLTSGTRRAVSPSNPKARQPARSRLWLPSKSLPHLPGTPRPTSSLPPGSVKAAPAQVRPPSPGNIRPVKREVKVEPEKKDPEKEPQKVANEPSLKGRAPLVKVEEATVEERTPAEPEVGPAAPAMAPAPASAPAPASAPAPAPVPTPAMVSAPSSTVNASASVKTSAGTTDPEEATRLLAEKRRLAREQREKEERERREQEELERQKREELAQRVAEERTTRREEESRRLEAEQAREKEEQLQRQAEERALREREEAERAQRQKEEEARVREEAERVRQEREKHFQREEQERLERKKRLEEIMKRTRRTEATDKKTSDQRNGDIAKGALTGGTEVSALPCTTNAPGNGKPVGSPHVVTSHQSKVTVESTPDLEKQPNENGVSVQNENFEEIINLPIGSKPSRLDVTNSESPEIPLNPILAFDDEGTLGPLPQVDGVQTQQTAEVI
Chain of Tau-MTBD (amino acids 242-367) (P10636 559-684): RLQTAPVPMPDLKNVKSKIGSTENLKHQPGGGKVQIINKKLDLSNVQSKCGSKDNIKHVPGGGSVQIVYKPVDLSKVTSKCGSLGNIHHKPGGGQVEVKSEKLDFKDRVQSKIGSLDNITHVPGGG
Chain of MAP7-N (amino acids 1-316) (Q14244 1-316): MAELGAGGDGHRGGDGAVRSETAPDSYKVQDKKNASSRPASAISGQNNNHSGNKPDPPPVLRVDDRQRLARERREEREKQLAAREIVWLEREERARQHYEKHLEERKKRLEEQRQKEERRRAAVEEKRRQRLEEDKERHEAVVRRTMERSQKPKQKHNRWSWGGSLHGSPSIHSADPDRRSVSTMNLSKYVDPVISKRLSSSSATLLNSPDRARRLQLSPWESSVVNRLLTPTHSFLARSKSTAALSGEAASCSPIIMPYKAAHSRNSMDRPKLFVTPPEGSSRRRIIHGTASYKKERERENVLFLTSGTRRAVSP

IC50 [1]: 270 nM
Kd [1]: 111 nM
Substance: full-length human MAP7 (from UniProt Q14244-1 1-749) (natural protein)

Substance: Tau-MTBD (amino acids 242-367) (from UniProt P10636-8 242-367) (domain or fragment)
fold lower affinity than FL tau [1]: 100 fold

IC50 of the run frequency of K560 on MTs against the concentration of MAP7-N [2]: 17.6 nM
Substance: MAP7-N (amino acids 1-316) (from UniProt Q14244-1 1-316) (domain or fragment)
